Test results published in the supplement of paper PMC10065799, “High-throughput profiling of sequence recognition by tyrosine kinases and SH2 domains using bacterial peptide display” (eLife, 2023).

Tests used:
FGFR3 = FGFR3 (UniProt P22607); assay: phosphorylation enrichment, bacterial display (enrichment ratio); higher = better substrate or ligand; peptides without Tyr show the background
c-Src = assay: as above
EPHB2 = EPHB2 (UniProt P29323); assay: as above
AncSZ = assay: as above
Fes = Fes (UniProt P07332); assay: as above
Fer (mouse) = assay: as above
Hck = Hck (UniProt P08631); assay: as above
MERTK = MERTK (UniProt Q12866); assay: as above
Fyn = Fyn (UniProt P06241); assay: as above
FGFR1 = FGFR1 (UniProt P11362); assay: as above
Jak2 = Jak2 (UniProt O60674); assay: as above
EPHB1 = EPHB1 (UniProt P54762); assay: as above
c-Abl (mouse) = assay: as above
c-Src SH2 = assay: SH2 binding enrichment of the phosphorylated peptide, bacterial display (enrichment ratio); higher = better substrate or ligand; peptides without Tyr show the background
Grb2 SH2 = Grb2 SH2 (UniProt P62993); assay: as above
SHP2-C SH2 = assay: as above
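Wherever SH2 binding enrichment of the phosphorylated peptide, bacterial display is given: peptide library displayed on the E. coli surface as eCPX fusions, selected cells deep-sequenced, score is each peptide's frequency after selection divided by its frequency in the input.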
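Wherever phosphorylation enrichment, bacterial display is given: 11-residue human phosphosite peptides and single-mutation variants displayed on the E. coli surface, counted by deep sequencing, each peptide's frequency after selection divided by its frequency in the unselected input library; frequency after pTyr selection over input frequency; kinase dosed for 20-30% of maximal phosphorylation in three min.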

Hck, sequence (P08631 whole entry, looked up): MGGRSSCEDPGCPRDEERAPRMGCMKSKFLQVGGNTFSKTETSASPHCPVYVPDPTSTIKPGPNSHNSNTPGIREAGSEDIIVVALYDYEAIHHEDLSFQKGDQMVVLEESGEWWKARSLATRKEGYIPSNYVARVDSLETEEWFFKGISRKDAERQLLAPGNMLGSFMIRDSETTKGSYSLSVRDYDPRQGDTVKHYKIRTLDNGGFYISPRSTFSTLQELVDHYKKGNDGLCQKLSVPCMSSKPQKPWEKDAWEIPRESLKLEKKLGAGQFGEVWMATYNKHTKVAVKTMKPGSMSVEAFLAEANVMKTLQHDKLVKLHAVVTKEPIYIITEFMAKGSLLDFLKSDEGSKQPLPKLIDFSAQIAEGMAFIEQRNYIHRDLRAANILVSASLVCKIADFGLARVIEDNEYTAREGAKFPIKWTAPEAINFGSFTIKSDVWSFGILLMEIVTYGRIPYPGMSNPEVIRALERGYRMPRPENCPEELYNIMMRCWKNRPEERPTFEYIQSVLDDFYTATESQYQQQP
EPHB2, sequence (P29323 whole entry, looked up): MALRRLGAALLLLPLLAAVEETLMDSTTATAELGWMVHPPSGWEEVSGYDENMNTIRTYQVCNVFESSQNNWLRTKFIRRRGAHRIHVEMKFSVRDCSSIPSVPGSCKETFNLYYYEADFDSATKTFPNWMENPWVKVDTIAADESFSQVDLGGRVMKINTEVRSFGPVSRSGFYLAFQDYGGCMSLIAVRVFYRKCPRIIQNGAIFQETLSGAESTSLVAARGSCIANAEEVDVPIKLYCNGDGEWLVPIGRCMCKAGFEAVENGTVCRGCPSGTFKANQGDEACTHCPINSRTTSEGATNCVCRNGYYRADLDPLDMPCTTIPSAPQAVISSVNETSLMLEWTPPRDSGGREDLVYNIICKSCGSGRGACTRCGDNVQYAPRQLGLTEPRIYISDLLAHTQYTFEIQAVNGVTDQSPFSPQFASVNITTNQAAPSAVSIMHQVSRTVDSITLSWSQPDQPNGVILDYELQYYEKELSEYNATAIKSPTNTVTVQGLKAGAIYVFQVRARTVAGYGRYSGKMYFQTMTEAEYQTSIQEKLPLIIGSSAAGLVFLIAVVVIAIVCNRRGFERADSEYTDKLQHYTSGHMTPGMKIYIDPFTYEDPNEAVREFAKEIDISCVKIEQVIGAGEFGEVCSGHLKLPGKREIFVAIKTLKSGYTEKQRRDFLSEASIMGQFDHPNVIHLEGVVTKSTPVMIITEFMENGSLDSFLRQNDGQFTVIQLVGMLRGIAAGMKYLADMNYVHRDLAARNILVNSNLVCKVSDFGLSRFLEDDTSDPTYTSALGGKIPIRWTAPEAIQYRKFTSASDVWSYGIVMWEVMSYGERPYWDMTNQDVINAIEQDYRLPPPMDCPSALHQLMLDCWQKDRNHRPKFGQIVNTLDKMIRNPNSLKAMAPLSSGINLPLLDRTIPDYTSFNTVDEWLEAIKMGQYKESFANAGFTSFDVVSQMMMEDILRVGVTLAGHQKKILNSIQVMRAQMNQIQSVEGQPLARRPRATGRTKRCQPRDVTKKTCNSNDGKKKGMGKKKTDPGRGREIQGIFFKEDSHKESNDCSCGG
FGFR1, sequence (P11362 whole entry, looked up): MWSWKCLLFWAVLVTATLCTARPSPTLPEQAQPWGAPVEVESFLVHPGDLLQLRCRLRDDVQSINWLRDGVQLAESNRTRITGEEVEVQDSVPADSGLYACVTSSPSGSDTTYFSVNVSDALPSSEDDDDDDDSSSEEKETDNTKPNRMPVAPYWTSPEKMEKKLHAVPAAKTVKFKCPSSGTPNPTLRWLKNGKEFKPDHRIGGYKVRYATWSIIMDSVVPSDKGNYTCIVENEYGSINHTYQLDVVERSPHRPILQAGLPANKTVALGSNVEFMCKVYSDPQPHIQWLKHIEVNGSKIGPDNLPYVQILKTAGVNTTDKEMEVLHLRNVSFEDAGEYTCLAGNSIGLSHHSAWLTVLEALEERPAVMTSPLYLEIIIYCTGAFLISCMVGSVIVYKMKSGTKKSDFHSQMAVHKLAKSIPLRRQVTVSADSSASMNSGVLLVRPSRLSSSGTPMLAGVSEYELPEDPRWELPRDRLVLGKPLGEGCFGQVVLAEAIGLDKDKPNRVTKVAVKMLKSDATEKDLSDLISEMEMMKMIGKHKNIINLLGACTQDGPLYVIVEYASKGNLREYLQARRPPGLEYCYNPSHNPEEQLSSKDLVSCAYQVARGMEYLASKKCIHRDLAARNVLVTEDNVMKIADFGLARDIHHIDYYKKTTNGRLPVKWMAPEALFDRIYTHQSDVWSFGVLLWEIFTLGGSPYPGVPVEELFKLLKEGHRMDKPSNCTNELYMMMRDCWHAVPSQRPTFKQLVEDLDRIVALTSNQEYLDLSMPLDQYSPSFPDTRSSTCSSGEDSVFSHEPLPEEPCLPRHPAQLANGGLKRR
Jak2, sequence (O60674 whole entry, looked up): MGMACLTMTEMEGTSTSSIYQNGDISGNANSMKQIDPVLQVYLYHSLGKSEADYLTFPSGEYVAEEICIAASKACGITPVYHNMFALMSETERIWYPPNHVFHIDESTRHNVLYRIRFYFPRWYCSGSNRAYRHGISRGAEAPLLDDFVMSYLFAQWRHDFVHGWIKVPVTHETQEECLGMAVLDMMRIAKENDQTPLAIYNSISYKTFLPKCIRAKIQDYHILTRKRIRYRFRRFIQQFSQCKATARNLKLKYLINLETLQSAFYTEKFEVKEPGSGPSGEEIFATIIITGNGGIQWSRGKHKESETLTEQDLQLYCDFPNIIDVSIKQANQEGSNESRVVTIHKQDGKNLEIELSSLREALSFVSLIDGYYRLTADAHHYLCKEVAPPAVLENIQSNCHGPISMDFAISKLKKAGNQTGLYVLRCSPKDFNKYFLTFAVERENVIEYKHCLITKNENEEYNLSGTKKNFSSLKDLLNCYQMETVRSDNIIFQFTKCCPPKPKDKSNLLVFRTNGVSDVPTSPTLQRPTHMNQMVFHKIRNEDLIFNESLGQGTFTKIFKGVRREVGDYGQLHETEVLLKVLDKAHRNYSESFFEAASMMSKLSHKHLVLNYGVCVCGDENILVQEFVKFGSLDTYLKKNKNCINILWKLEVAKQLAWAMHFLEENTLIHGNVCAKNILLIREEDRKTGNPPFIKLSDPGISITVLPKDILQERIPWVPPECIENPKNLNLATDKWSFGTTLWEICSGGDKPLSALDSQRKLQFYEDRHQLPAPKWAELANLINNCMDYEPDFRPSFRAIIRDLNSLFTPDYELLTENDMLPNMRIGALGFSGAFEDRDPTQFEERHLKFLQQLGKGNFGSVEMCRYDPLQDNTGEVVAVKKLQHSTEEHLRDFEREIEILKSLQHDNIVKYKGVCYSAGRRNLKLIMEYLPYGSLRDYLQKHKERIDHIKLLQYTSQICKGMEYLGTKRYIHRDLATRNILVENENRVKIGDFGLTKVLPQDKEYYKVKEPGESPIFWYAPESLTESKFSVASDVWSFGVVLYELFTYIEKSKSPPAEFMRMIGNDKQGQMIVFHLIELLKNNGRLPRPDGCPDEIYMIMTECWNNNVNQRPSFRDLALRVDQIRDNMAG
EPHB1, sequence (P54762 whole entry, looked up): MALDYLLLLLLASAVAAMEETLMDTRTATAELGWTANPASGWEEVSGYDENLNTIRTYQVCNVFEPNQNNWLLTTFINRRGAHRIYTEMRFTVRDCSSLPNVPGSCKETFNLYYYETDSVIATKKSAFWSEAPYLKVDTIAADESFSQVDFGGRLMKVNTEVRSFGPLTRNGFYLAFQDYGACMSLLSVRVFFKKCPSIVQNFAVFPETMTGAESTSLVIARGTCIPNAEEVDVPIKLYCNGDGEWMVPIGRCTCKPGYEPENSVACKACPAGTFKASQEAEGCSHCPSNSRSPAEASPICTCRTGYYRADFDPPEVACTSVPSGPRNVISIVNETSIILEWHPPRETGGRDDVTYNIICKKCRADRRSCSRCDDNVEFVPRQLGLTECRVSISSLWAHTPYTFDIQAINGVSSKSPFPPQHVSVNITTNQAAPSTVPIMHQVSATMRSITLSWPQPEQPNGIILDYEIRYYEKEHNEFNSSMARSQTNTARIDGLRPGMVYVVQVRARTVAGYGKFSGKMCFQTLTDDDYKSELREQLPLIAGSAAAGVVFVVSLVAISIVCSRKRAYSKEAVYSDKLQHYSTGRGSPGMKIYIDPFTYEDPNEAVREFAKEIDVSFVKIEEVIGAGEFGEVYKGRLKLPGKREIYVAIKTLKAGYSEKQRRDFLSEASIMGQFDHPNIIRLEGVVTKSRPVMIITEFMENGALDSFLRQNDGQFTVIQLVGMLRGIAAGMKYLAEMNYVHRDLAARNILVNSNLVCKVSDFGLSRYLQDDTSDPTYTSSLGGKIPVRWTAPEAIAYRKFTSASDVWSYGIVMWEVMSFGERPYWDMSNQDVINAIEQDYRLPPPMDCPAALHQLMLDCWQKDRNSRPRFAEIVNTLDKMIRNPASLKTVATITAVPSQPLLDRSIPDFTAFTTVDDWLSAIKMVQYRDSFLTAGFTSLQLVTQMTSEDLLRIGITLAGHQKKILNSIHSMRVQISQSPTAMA
Fyn, sequence (P06241 whole entry, looked up): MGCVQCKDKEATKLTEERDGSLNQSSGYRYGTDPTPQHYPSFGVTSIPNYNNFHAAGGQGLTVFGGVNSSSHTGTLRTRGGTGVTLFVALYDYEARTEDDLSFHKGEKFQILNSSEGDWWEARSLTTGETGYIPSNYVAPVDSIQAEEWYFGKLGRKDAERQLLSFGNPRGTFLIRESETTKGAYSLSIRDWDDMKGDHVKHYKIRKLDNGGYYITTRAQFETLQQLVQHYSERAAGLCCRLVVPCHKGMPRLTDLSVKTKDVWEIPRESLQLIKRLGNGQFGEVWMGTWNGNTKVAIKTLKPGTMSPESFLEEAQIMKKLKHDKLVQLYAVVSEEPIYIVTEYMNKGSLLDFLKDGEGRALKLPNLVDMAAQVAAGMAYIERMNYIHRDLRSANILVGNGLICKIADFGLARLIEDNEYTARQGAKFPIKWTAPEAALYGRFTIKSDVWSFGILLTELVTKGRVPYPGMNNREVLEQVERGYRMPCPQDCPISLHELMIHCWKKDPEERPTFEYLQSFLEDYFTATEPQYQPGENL

SH2 binding enrichment (c-Src SH2)	SH2 binding enrichment (Grb2 SH2)	SH2 binding enrichment (SHP2-C SH2)	Sequence	phosphorylation enrichment (FGFR3)	phosphorylation enrichment (c-Src)	phosphorylation enrichment (EPHB2)	phosphorylation enrichment (AncSZ)	phosphorylation enrichment (Fes)	phosphorylation enrichment (Fer (mouse))	phosphorylation enrichment (Hck)	phosphorylation enrichment (MERTK)	phosphorylation enrichment (Fyn)	phosphorylation enrichment (FGFR1)	phosphorylation enrichment (Jak2)	phosphorylation enrichment (EPHB1)	phosphorylation enrichment (c-Abl (mouse))
0.923	0.85	0.998	RQNNSYTCFTA [SLC20A2_Y386_R382Q_YF]	0.904	0.712	0.658	1.04	0.898	0.751	0.544	0.938	0.537	0.663	0.951	0.819	0.802
1.21	1.19	1.57	RQNQEYEILLD [KRT39_Y379]	0.678	0.733	1.21	1.38	1.6	0.595	0.705	0.63	0.634	0.622	1.67	1.35	1.04
0.606	0.661	0.81	RRGLLYDSDEE [MCM2_Y137]	1.3	0.763	0.642	1.25	1.13	1.08	1.16	0.855	1.29	0.898	0.77	0.796	0.59
0.33	0.712	0.501	RRGMPYGGLGD [TGM1_Y312_R315L]	0.443	0.398	0.536	0.618	0.663	0.456	0.391	1.02	0.503	0.445	0.352	0.302	0.66
0.358	0.686	0.556	RRGTGYTLSLP [MAGEC3_Y152]	0.643	0.497	0.643	0.579	0.812	0.564	0.693	0.551	0.73	0.772	0.477	0.553	0.764
0.53	0.902	0.534	RRIHSYRGYLW [VHL_Y112_H115Y]	0.915	0.517	0.605	0.646	0.905	0.676	0.64	0.488	0.551	0.581	0.717	0.614	0.375
1.11	1.28	0.794	RSAGKYDVFFI [MECP2_Y120_L124F_YF]	1.53	0.751	0.773	1.03	1.09	0.519	0.642	0.722	0.678	1.02	1.38	0.651	0.796
0.341	0.769	0.472	RSDSTYRMSAT [NHS_Y1532_S1531T]	0.637	0.632	0.556	0.587	0.581	0.587	0.436	0.335	0.528	0.558	0.709	0.411	0.697
0.668	0.744	0.613	RSFSPYDFQPC [TNS1_Y796_YF]	0.788	5.06	0.929	1.5	1.29	0.822	0.959	1.69	5.66	0.66	1.28	0.672	1.18
0.555	0.951	0.787	RSHLSYDVTPE [IQGAP3_Y1098_P1097S]	0.924	0.561	0.717	0.733	1.14	0.453	0.432	0.594	0.509	0.473	1.05	0.767	0.982
1.07	1.01	1.33	RSPLRYISILT [OR51B6_Y130_T131I]	0.763	0.322	0.473	0.724	0.8	0.606	0.515	0.376	0.409	0.676	0.475	0.446	0.419
0.463	0.706	0.405	RSRSPYSPVFR [CDK13_Y399_L403F]	0.462	0.576	0.452	0.812	0.77	0.403	0.736	0.655	0.6	0.459	0.737	0.546	0.58
0.563	0.938	0.855	RTCSSYAIEKI [PARP15_Y520]	0.629	0.383	0.702	1.13	0.986	0.371	0.581	0.344	0.302	0.589	0.894	0.532	0.667
0.455	0.784	0.679	RVNSAYQDKVS [ACAN_Y100]	0.567	0.484	0.648	0.849	0.796	0.437	0.396	0.498	0.517	0.513	1.36	0.642	1.06
0.898	1.47	1.73	RWHEGYRQTPK [CD44_Y412]	0.595	0.361	0.589	0.66	0.678	0.367	0.429	0.356	0.418	0.405	0.607	0.407	0.418
1.7	1.43	1.23	RWHEGYRQTPR [CD44_Y412_K417R]	0.663	0.35	0.383	0.645	0.851	0.613	0.345	0.539	0.299	0.433	0.539	0.461	0.65
0.627	1.11	0.763	RYLTRYIYNRE [HLA-DQB1_Y62_V59L]	0.772	1.57	0.773	1.91	1.32	0.813	0.621	3.87	1.11	0.564	1.92	4.73	1.07
